This note sets out measurements from US10543284B2, “Anti-c-Met antibody and anti-c-Met antibody-cytotoxic drug conjugate and pharmaceutical use thereof” (Suzhou Suncadia Biopharmaceuticals Co., Ltd., priority 2015, dated 2020).

Experiment [1] concerns MKN45 cells. Kind of experiment: Inhibition of proliferation of MKN45 gastric cancer cells (CellTiter-Glo, 5 days). The class given is cell-based, human. An excerpt:
The clones above were selected and further cultured to obtain monoclones. After verification of binding activity by ELISA, monoclones were selected for cultivation, and the resulting supernatant was subjected to a cell viability assay. According to the experiment principle, anti-human c-Met antibodies of the invention are able to inhibit phosphorylation of c-Met expressed on the surface of human gastric cancer cell line MKN45, thereby inhibiting the proliferation of MNK45 cells.
Human gastric cancer cells (MKN45, JCRB, JCRB0254, P11) were added to a 96-well cell culture plate (costar, #3799) at 1×10^5 cells/mL and 50 μl/well. The medium was RPMI1640 medium: (GIBCO, cat #11835)+10% FBS (GIBCO-10099141). Anti-human c-Met antibodies to be tested were added at 50 μl/well, and the plate was cultured for 5 days in incubator at 37′C (Manufacture: SANYO; Equipment No. TINC035). CellTiter-Glo® Luminescent Cell Viability Assay (Promega, G7573) was used, and the proliferation of cells was detected according to the instructions. The plate was read by a PerkinElmer plate reader, TREA001-RDA-IBA100. The following formula was used to calculate the percentage proliferation of cells: % proliferation of cells=(1−cell reads in experimental group/cell reads in untreated group)×100%.
(In general: ATP-based viability assays read luminescence as a measure of living cells.)

Experiment [2] relates to c-Met tyrosine residue 1349. Kind of experiment: Agonist test: c-Met phosphorylation in A549 cells. The class given is cell-based, human. The note with it: Antibody 20 μg/ml; activation by HGF (200 ng/ml) set as 100%. As to the method: The binding of HGF to c-Met activates both tyrosine phosphorylation of the c-Met molecule and the c-Met signaling pathway. Therefore, the activation of c-Met by HGF was used as a positive control of the agonist experiment, and human lung cancer cell line […] was used to evaluate the induced phophorylation of c-Met tyrosine residue 1349.
A549 cells were suspended in solution containing Ham's F12K, 2 mM glutamine (Invitrogen, #21127-022), and 10% (v/v) FBS (GIBCO, #10099141). 0.2 mL of cell suspension was taken and added to a 96-well plate (Corning, #3599), and the cell concentration was 60000 cells/well. The plate was incubated for 24 hours under 5% CO2 at 37° C. After 24 hours, the media in the 96-well plate was discarded, and 100 μl low serum medium (Ham's F12K+2 mM glutamine+0.5% FBS) was added. The cells were starved for 6 hours under 5% CO2 at 37° C. Antibodies were diluted using the above low serum medium to a final concentration of 20 μg/ml. The HGF concentration in the positive control was 200 ng/ml. The plate was incubated for 15 minutes at 37° C. […] After cell lysis, c-Met tyrosine phosphorylation was detected by ELISA. […] Data was read by a […] microplate reader (Supplier: Moleculer Devices; Model: MNR0643; Equip ID: TMRP001). […]

Experiment [3] deals with human gastric cancer MKN45 cell model. Kind of experiment: MKN45 subcutaneous xenograft in BALB/c nude mice (Example 10). It counts as in vivo. The settings on record: 5 mg/kg antibody, terminated at day 25. As to the method: The human gastric cancer MKN45 cell model, obtained by subcutaneous xenograft into BALB/c nude mice, was used to evaluate the antitumor activity of the antibodies.
MKN45 cells were cultured in a monolayer in RPMI-1640 medium (10%/FBS) at 37° C. in 5% CO2. The cells were counted and collected during the logarithmic phase. The cells were resuspended in PBS to an appropriate concentration, and 0.1 ml 3×10^6 cells were subcutaneously injected into the right wing of mice (BALB/c nude mouse, female, 10-week old, 22-28 g, from Shanghai SLAC experimental animal ltd. Licence No. 2007000548777; Environment: SPF grade). When the tumors' average volume reached 114 mm^3, the tumors' weights and volumes were measured, and mice were then separated into groups for treatment. The control group was treated with PBS, and the antibody therapy group was treated with 5 mg/kg antibody of the invention, and the frequency was once a week and twice per time. The tumors' volumes and weights were measured twice a week, and the experiment was terminated at day 25. The formula for calculating tumor size was: tumor volume (mm^3)=0.5×(tumor length×tumor diameter^2).

B1: Ab-9: humanized anti c-Met antibody: heavy chain sequence of SEQ ID NO: 23 and light chain sequence of SEQ ID NO: 26 (antibody)
heavy: QVTLKESGPVLVKPTETLTLTCTVSGFSLPNYGVHWVRQPPGKALEWLAVIWSGGSTNYAAAFVSRLRISKDTSKSQVVFTMNNMDPVDTATYYCARNHDNPYNYAMDYWGQGTTVTVSSASTKGPSVFPLAPCSRSTSESTAALGCLVKDYFPEPVTVSWNSGALTSGVHTFPAVLQSSGLYSLSSVVTVPSSNFGTQTYTCNVDHKPSNTKVDKTVERKCCVECPPCPAPPVAGPSVFLFPPKPKDTLMISRTPEVTCVVVDVSHEDPEVQFNWYVDGVEVHNAKTKPREEQFNSTFRVVSVLTVVHQDWLNGKEYKCKVSNKGLPAPIEKTISKTKGQPREPQVYTLPPSREEMTKNQVSLTCLVKGFYPSDIAVEWESNGQPENNYKTTPPMLDSDGSFFLYSKLTVDKSRWQQGNVFSCSVMHEALHNHYTQKSLSLSPGK
light: DIVLTQSPASLAVSPGQRATITCRANKSVSTSTYNYLHWYQQKPGQPPKLLIYLASNLASGVPARFSGSGSGTDFTLTINPVEANDTANYYCQHSRDLPPTFGQGTKLEIKRTVAAPSVFIFPPSDEQLKSGTASVVCLLNNFYPREAKVQWKVDNALQSGNSQESVTEQDSKDSTYSLSSTLTLSKADYEKHKVYACEVTHQGLSSPVTKSFNRGEC
modifications: Ab-9 heavy chain; Ab-9 light chain
On to B1, for which the “Activity of inhibition of MKN45 cell proliferation Maximum inhibition rate (%)” value in experiment [1] stood at 33%. For the same molecule, in experiment [2], the “Activation of c-Met phosphorylation (%)” value was 29.9%. Also, in experiment [3], the inhibition rate was 56%.
